Consider four molecules from article PMC6815173 (Proceedings of the National Academy of Sciences of the …, 2019).

B1: entire cytoplasmic domain of human E-cadherin (EcadCT; residues 731 to 882) (domain or fragment)
chain: not shown
B2: full-length human αE-catenin (natural protein)
chain: GMTAVHAGNINFKWDPKSLEIRTLAVERLLEPLVTQVTTLVNTNSKGPSNKKRGRSKKAHVLAASVEQATENFLEKGDKIAKESQFLKEELVAAVEDVRKQGDLMKAAAGEFADDPCSSVKRGNMVRAARALLSAVTRLLILADMADVYKLLVQLKVVEDGILKLRNAGNEQDLGIQYKALKPEVDKLNIMAAKRQQELKDVGHRDQMAAARGILQKNVPILYTASQACLQHPDVAAYKANRDLIYKQLQQAVTGISNAAQATASDDASQHQGGGGGELAYALNNFDKQIIVDPLSFSEERFRPSLEERLESIISGAALMADSSCTRDDRRERIVAECNAVRQALQDLLSEYMGNAGRKERSDALNSAIDKMTKKTRDLRRQLRKAVMDHVSDSFLETNVPLLVLIEAAKNGNEKEVKEYAQVFREHANKLIEVANLACSISNNEEGVKLVRMSASQLEALCPQVINAALALAAKPQSKLAQENMDLFKEQWEKQVRVLTDAVDDITSIDDFLAVSENHILEDVNKCVIALQEKDVDGLDRTAGAIRGRAARVIHVVTSEMDNYEPGVYTEKVLEATKLLSNTVMPRFTEQVEAAVEALSSDPAQPMDENEFIDASRLVYDGIRDIRKAVLMIRTPEELDDSDFETEDFDVRSRTSVQTEDDQLIAGQSARAIMAQLPQEQKAKIAEQVASFQEEKSKLDAEVSKWDDSGNDIIVLAKQMCMIMMEMTDFTRGKGPLKNTSDVISAAKKIAEAGSRMDKLGRTIADHCPDSACKQDLLAYLQRIALYCHQLNICSKVKAEVQNLGGELVVSGVDSAMSLIQAAKNLMNAVVQTVKASYVASTKYQKSQGMASLNLPAVSWKMKAPEKKPLVKREKQDETQTKIKRASQKKHVNPVQALSEFKAMDSI
B3: complex of the β-catenin truncation mutant that lacks the N-terminal 107 residues with EcadCT (B_(N-107)E) (complex)
chain 1: QIPSTQFDAAHPTNVQRLAEPSQMLKHAVVNLINYQDDAELATRAIPELTKLLNDEDQVVVNKAAVMVHQLSKKEASRHAIMRSPQMVSAIVRTMQNTNDVETARCTAGTLHNLSHHREGLLAIFKSGGIPALVKMLGSPVDSVLFYAITTLHNLLLHQEGAKMAVRLAGGLQKMVALLNKTNVKFLAITTDCLQILAYGNQESKLIILASGGPQALVNIMRTYTYEKLLWTTSRVLKVLSVCSSNKPAIVEAGGMQALGLHLTDPSQRLVQNCLWTLRNLSDAATKQEGMEGLLGTLVQLLGSDDINVVTCAAGILSNLTCNNYKNKMMVCQVGGIEALVRTVLRAGDREDITEPAICALRHLTSRHQEAEMAQNAVRLHYGLPVVVKLLHPPSHWPLIKATVGLIRNLALCPANHAPLREQGAIPRLVQLLVRAHQDTQRRTSMGGTQQQFVEGVRMEEIVEGCTGALHILARDVHNRIVIRGLNTIPLFVQLLYSPIENIQRVAAGVLCELAQDKEAAEAIEAEGATAPLTELLHSRNEGVATYAAAVLFRMSEDKPQDYKKRLSVELTSSLFRTEPMAWNETADLGLDIGAQGEPLGYRQDDPSYRSFHSGGYGQDALGMDPMMEHEMGGHHPGADYPVDGLPDLGHAQDLMDGLPPGDSNQLAWFDTDL
chain 2: not shown
B4: full-length human β-catenin (natural protein)
chain: GMATQADLMELDMAMEPDRKAAVSHWQQQSYLDSGIHSGATTTAPSLSGKGNPEEEDVDTSQVLYEWEQGFSQSFTQEQVADIDGQYAMTRAQRVRAAMFPETLDEGMQIPSTQFDAAHPTNVQRLAEPSQMLKHAVVNLINYQDDAELATRAIPELTKLLNDEDQVVVNKAAVMVHQLSKKEASRHAIMRSPQMVSAIVRTMQNTNDVETARCTAGTLHNLSHHREGLLAIFKSGGIPALVKMLGSPVDSVLFYAITTLHNLLLHQEGAKMAVRLAGGLQKMVALLNKTNVKFLAITTDCLQILAYGNQESKLIILASGGPQALVNIMRTYTYEKLLWTTSRVLKVLSVCSSNKPAIVEAGGMQALGLHLTDPSQRLVQNCLWTLRNLSDAATKQEGMEGLLGTLVQLLGSDDINVVTCAAGILSNLTCNNYKNKMMVCQVGGIEALVRTVLRAGDREDITEPAICALRHLTSRHQEAEMAQNAVRLHYGLPVVVKLLHPPSHWPLIKATVGLIRNLALCPANHAPLREQGAIPRLVQLLVRAHQDTQRRTSMGGTQQQFVEGVRMEEIVEGCTGALHILARDVHNRIVIRGLNTIPLFVQLLYSPIENIQRVAAGVLCELAQDKEAAEAIEAEGATAPLTELLHSRNEGVATYAAAVLFRMSEDKPQDYKKRLSVELTSSLFRTEPMAWNETADLGLDIGAQGEPLGYRQDDPSYRSFHSGGYGQDALGMDPMMEHEMGGHHPGADYPVDGLPDLGHAQDLMDGLPPGDSNQLAWFDTDL

The target of assay [1] is B4. Nature of the assay: SPR. (In general: SPR reads the build-up and loss of mass on a sensor chip optically.)
The target of assay [2] is β-catenin•epithelial cadherin cytoplasmic domain complex (BE) (human, UniProt P35222;P12830). Nature of the assay: SPR.
Assay [3] has as its target B2. Description: SPR.
Assay [4] deals with B2. Description: contrast variation small-angle neutron scattering.

The Kd is a measure of binding affinity in units of concentration. A low value points to a tighter complex. The koff is the first-order rate constant of dissociation. A higher koff goes with a short-lived complex.

In assay [1], B1 came in with a Kd of 104 ± 3.2 nM.

B2: in assay [2], the equilibrium dissociation constant (Kd) is 119 ± 6.3 nM and the koff stood at 0.0004 s⁻¹.

In the case of B3, in assay [3], the Kd turned out to be 12.6 ± 0.758 µM and the koff is 0.002 s⁻¹.

Take B4: the binding result in assay [4] is recorded as “binds”.
